# From paper PMC3025574 (Nucleic Acids Research, 2010)
# Target: Escherichia coli DNA gyrase B subunit (GyrB) (Escherichia coli, UniProt P0AES6 1-804)
# Test: SAXS
binder,measurement,value
"GyrA-ΔCTD (mutant GyrA subunit lacking the CTDs, residues 1–523) (domain or fragment) MSDLAREITPVNIEEELKSSYLDYAMSVIVGRALPDVRDGLKPVHRRVLYAMNVLGNDWNKAYKKSARVVGDVIGKYHPHGDSAVYDTIVRMAQPFSLRYMLVDGQGNFGSIDGDSAAAMRYTEIRLAKIAHELMADLEKETVDFVDNYDGTEKIPDVMPTKIPNLLVNGSSGIAVGMATNIPPHNLTEVINGCLAYIDDEDISIEGLMEHIPGPDFPTAAIINGRRGIEEAYRTGRGKVYIRARAEVEVDAKTGRETIIVHEIPYQVNKARLIEKIAELVKEKRVEGISALRDESDKDGMRIVIEVKRDAVGEVVLNNLYSQTQLQVSFGINMVALHHGQPKIMNLKDIIAAFVRHRREVVTRRTIFELRKARDRAHILEALAVALANIDPIIELIRHAPTPAEAKTALVANPWQLGNVAAMLERAGDDAARPEWLEPEFGVRDGLYYLTEQQAQAILDLRLQKLTGLEHEKLLDEYKELLDQIAELLRILGSADRLMEVIREELELVREQFGDKRRTEITA",binding result,binds
